US20220380444A1

Target: mouse complement protein C5 (mouse) (UniProt P06684)
Assay: cell-based or functional assay

Sequence of monoclonal anti-C5 antibody BB5.1 (VH): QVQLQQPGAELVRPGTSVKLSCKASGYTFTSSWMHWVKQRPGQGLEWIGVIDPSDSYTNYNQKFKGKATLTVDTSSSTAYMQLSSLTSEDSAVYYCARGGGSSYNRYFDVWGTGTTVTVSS
Sequence of monoclonal anti-C5 antibody BB5.1 (VL): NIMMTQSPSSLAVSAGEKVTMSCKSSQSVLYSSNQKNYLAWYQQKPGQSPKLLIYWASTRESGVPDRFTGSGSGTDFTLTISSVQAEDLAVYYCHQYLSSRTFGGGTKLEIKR

Crovalimab (original name SKY59) (antibody)
50% Inhibitory Dose, classical pathway haemolysis assay: 1860 ng/mL
Haemolytic Units (HU), classical pathway haemolysis assay: 1.4 HU

monoclonal anti-C5 antibody BB5.1
50% Inhibitory Dose, classical pathway haemolysis assay: 614 ng/mL
Haemolytic Units (HU), classical pathway haemolysis assay: 16.3 HU
